The text below walks through data of the domain aggregation screens of Martell et al. (2025).

A short description of the data set: soluble fraction after stress (log2 fold change); higher = more stays soluble; pooled small domains, quantitative proteomics. The following applies: stress: 50 degC. An outline of the steps:
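Quantitative proteomics served as the high-throughput read-out for pooled custom libraries of small protein domains. Each was stressed at 50°C. Aggregation propensity is expressed as the base-two log fold change in soluble protein after stress. A higher value means a larger share of the protein remains in solution.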

For “HMITFRINQQSQVGLRLDKFIVQQMPDYSRTRIQSWIKTKNILVNGEGKKSGYALEFDDLVEVTIPE”, the “soluble fraction (log2)” value is -2.04.

For “HMTMSFSELLRGLRKSRGMSQAELATAVGLSQAQVSQIETGKLLPSPELIEKLAALYGIALGSA”, the “soluble fraction (log2)” value was -0.139.

For “HMSFISRMVVAVEDIALSTRPNSTPSGDKYVSKGTVLLMEKRENDWVEVRQPSSPLSGWAPKTSLLSV”, the “soluble fraction (log2)” value was -0.546.

Regarding “HMGIIYGKNPVLEAISSGTTINKIYAQTSNKEIDSVIKEALKRKIIVVNTDKQKLDKMIDGKNSQGIIASI”, the “soluble fraction (log2)” value came to 0.317.

As for “HMVDWTFPVLVKDVVMMGRYGHMGFLRIPGKKDFESVDNALAKVGMVEYAKQQIGELSGGQR”, the “soluble fraction (log2)” value was -0.0772.

As to “HMRSREGVRWIIRERIMEELQERHHMDDGELLEMIDRSIGEMGQEIFLPLKERIWLRGSLFDSFR”, the “soluble fraction (log2)” value was -3.1.

Regarding “HMFHFELNAAKQALEDRKTIDRAKGILMRQRGMSEDDAYKLLRTTAMSQNRKVIDVAQALVTAADLL”, the “soluble fraction (log2)” value is -0.0832.

For “HMDGVEVVTKPAGAQIEFAGKSYGPSPVHIPGLVAGSQLILRLPGFQAATVRLRTAPDKSKALEYTLQPA”, the “soluble fraction (log2)” value was -0.0828.

Turning to “HMTSVMAWRLITPIPQHGIIRSSQVQLQKHAPNSLKFLDVDSSPVGKQVKHGIAAGHWLSKDDFTE”, the “soluble fraction (log2)” value is -0.937.

For “HMEAFELTPREKQVLQLLVQGKAYKIIAADLDITYDTVRAHIKKIYEKLHVGSMTEAVAKAIQHKL”, the “soluble fraction (log2)” value is -0.882.

Regarding “HMGYDDVIVINGKNETYGFPTKVEDDPVLSLVIKGDRSIDYAEERRLFYVAMTRTKNRVFFVAP”, the “soluble fraction (log2)” value turned out to be 0.0138.

“HMEVALEVPELRGLSMKQATNTLMASGFEVQKVGSGTIYAQFPLPGERLRTGYAVTIRGKTRDLG”: the “soluble fraction (log2)” value was -0.258.

“HMHITSFTIKQADQIVGTTPVREQAVGAAKARAQQTGTPVSVIAYLDTGEEREVIIHPDGTN”: the “soluble fraction (log2)” value stood at 0.324.

For the sequence “HMEMKMGHIISKLRYESGYSQVELAEKIGITKGAVGMYETDKRKPDYDTLIKLADLFNVSTDYLLS”, the “soluble fraction (log2)” value came to 0.0501.

“HMPPSGPWEQDPPSEAQLKPFNEAMKRTADIDVDLYEKAKKALNDGTITKGNIYDWINREDSPWVLQDGS”: the “soluble fraction (log2)” value turned out to be 0.141.

With “HMLGERIRRLRKEMGMSVTELARRVKTSPSYISEIEKGEKTPSLNLLVRIASELRTGIDYLTGL”, the “soluble fraction (log2)” value was -0.294.

In the case of “HMVPDGFDQLTEREYQVAMAVGKGLNNKEIASQLGLGERTVKAHLTTTFEKLHVRDRVQLALIVNRL”, the “soluble fraction (log2)” value was -0.556.

As to “HMNQIATSTQAIITTLSFLNTSSIFKLPVGDTASRPTGVSPGTLRFNSQEDSAEIYKADDGTGSAGWTEVA”, the “soluble fraction (log2)” value was 0.0743.

Regarding “HMTMKNPNGYGSVINLGKGRRRPWAARVTTGLVYDEKKDKLIQRYKYIGYADTRKEAHQILAEYNAGLPI”, the “soluble fraction (log2)” value was -1.43.

In the case of “HMPDPLVEIRSAVHSNYAGMIAMLGADNRVYLGREEHYSYQDGQPGQYDNRDGSLLFVSDQPDIYYFL”, the “soluble fraction (log2)” value is -1.44.

On to “HMVAEPVYGKVTEGPLNVRSAPSTDSEKVDSFSTGKVLTILETLDGWYKVEEGYVSADYVTIIDAAEAASS”, for which the “soluble fraction (log2)” value is 0.00408.

Turning to “HMLNMSVYDKQLLRAVENNPFISQRELARELHWNVDRVKYYMKKWKDKGGLRHVGSSHKGYWEVLVRIEEK”, the “soluble fraction (log2)” value is -0.886.

For the sequence “HMEQLESAVASRTLIGQAQGVIMERYGLSAPNAFSVLSRISQDSNTKLAEVAQQIVATRRIPG”, the “soluble fraction (log2)” value was -0.188.

Consider “HMPPFTYHLERAKRKTVGFIVDERGVTVRAPRWVSVSEIEKMLQTKEAWIQKKLTEFHNWQKE”, for which the “soluble fraction (log2)” value was -3.11.

Consider “HMNIGEKIKTLRENNNISIEELAEKINDSIENILKYENNELEPTLDKKLALSIALGVTLSDLS”, for which the “soluble fraction (log2)” value was -0.114.

Turning to “HMAVTGRVDLRIKPWGYVSVDGAAKVSSPPTMQLKLAPGRHEIEITNPAGAAVTKTVDVIAGKSVTVQHN”, the “soluble fraction (log2)” value came to 0.0967.

As to “HMTTRLLTPRQRQVFDIAIREGFYDSPRRISLTELADLLGVAKSTLSVQLQRVESTIVHTFSEEIRRRS”, the “soluble fraction (log2)” value is -2.57.

For the sequence “HMNNTIKFSVDIKNSGKRLDIFLSENVTQYTRSYLKRLIENSHVKLNNKILNSPSTKVKFQDQIIINNIE”, the “soluble fraction (log2)” value is -1.91.

As for “HMEREQNILQGREVVERELRRLGLAEAYTVSDIAKALKFDDEEQFLAKVGFGDIQSRQISGAIALMEKN”, the “soluble fraction (log2)” value was found to be 0.0472.

With “HMDELNFGNFEGTRIFVQRTARKKSIALSIRDGTIVILAPRHIPNQEIQELITTNTDWIRAKLSQHAETKR”, the “soluble fraction (log2)” value is -1.75.

Regarding “HMAAEIGSGVVDAYDLRLRSQPSTDAETIIYLDNGAKLSVQEDLGDWYKVVSGTYTGYVSAEYVAYTPSPE”, the “soluble fraction (log2)” value is -1.13.

Consider “HMNRPYETLFTGLTTDEASAIVGKLEEYGAADYKIEGDTIKVPAAQEPDLKAKLLLDGYPKS”, for which the “soluble fraction (log2)” value is 0.105.

As to “HMRSASFDIMSQKQSDATLGYERVYDTETNEVYKAYNGFTDDYDGERYKSISDNMYTKGISGYIEK”, the “soluble fraction (log2)” value amounted to 0.327.

With “HMTREAILDTAEELLQRRGYNAFSYHHIAVQLGIRNAAIHYHFPAKEDLGIELVSRFRIRLAE”, the “soluble fraction (log2)” value is -0.146.

For “HMGEDFPYVAYATDSVRLRSKPSSSGDILAVIRQGDAVLITGSDGNYKIVEYEGRKGYVISAFLSQTP”, the “soluble fraction (log2)” value is -0.199.

For “HMDAHIGTLTPRERETLHHLAIGHSNKVIAKKLNLAESTVKAYVQSILRKLGLSSRVQAAVYAIQHDIR”, the “soluble fraction (log2)” value was -0.205.

For the sequence “HMREVDKRYYKINIAGTDRIFTNVYRVGDRYSAYEADKNGKPGKFLYSLSQAEIDRAVISGSFDFK”, the “soluble fraction (log2)” value came to 0.105.

As for “HMNNPLPDLLKYFRKKKHLTQEQVAKQLSVSRASYASYETGRIIPGMQHIMELSRILEHDFLFAYTLAVQ”, the “soluble fraction (log2)” value was -2.34.

In the case of “HMWQVVEVDYGTFMSMTEDGQVGRVEIQEQENLILFTDQEETTVYKTAMVDDPDLTARLHDAGIPFYGQE”, the “soluble fraction (log2)” value was -0.64.

Take “HMKPTSLLGIERYLGSGLIRGVGPSTAKQIVEHFGMETMEVLTEHPERLQEVHGMGRKRWRQIAESFQEQQ”: the “soluble fraction (log2)” value is -0.797.

In the case of “HMSSFFLIDVSQVRIGMYIQLDVGWMRHPFPVNSFRITNQEQLDTLRSLNLAQVRWSPAKSDL”, the “soluble fraction (log2)” value was -3.77.

In the case of “HMKELFGQRLREQRLKQNLTLEQLAEKANLSPNYVGMVERGLKEPGLATIVKLLNGLNVSADTLL”, the “soluble fraction (log2)” value is -0.036.

Regarding “HMLSRTYDSSGPDVKIRGTAQTVADKYMSLARDAQSSGDRVMAENYLQHAEHYNRIIAAAQAQ”, the “soluble fraction (log2)” value came out at 0.254.

With “HMQAALEVQASAGVLAPVPPDQRQALLDTLAQDPRPGYQHEAGRVYGFPFGGFEVRFTVSDGLLTVLSAYK”, the “soluble fraction (log2)” value is -1.7.

For the sequence “HMSKEKQILQLLQHGYSQRRIADTLSVSRNTVAKVAKAAIEHPVSSDSLDSIDELELHQKLFPEEVLI”, the “soluble fraction (log2)” value is -0.339.

For the sequence “HMVKSDLVGHRFILVEDVTPKLTPKYHYSGINWKLITTDNLVAGTRVEVIQVDVGKFHIKAIK”, the “soluble fraction (log2)” value was -1.65.

For the sequence “HMRPAAELGLPHAPKHFIQYLTEDDRPQVLKDVDYEGGMGVSIGRLREDSIFDWKFVGLAHNTL”, the “soluble fraction (log2)” value was determined as 0.062.

With “HMSKYERVYTGSEINVNHLKSQLEDAGISSVVRNDHESAIRAGFGSDYDRGVLLFVEKDNLLRAKHIIEKT”, the “soluble fraction (log2)” value was determined as 0.0318.

For the sequence “HMQISLAAARVNAGLTQEEVAKAMKVGKQTIVSWEKGNSEPKMSQSRELSELYKIPLDYIFYP”, the “soluble fraction (log2)” value is -0.322.

With “HMEEKVEVPNLSGKTYQQAKALLESYGLVAAKGGEEESEEPVGKVSRWSSAGKSVKKGTTITVWISGGI”, the “soluble fraction (log2)” value is -0.0709.

On to “HMEQPPVPSVSITAALGSAVARRLAPHGFQKMPDLVDAYRAGKLAQISGIGGTTLDLIREWLTANARQQ”, for which the “soluble fraction (log2)” value turned out to be 0.0154.

In the case of “HMGEENLKYPLLTDGSVKTTVLEAIDKDEKWLREELAKQGYDDLSKLFLVDYLGGQLVVTPY”, the “soluble fraction (log2)” value came to 0.277.

For the sequence “HMKPSVEIKVNGGTGAGVVKKGGSITVTANEPAEGKVFTGWQDESGKIVSTQKEYTFTVAEGTTLTAVYED”, the “soluble fraction (log2)” value was 0.45.

Turning to “HMKSNIGENIRQLREKREMSVERVARMLEVKPATVIGWESGRELPEPAELGLLAKLFDVTVEELN”, the “soluble fraction (log2)” value was 0.106.

With “HMTALISGNKAMQMLELSRHSFEKIVKDGLLSIVHEGDKKYYEIGEVEAFMGSDTYKELVNGV”, the “soluble fraction (log2)” value was -0.345.

As for “HMKNKIYGTIVSSTSGEETVYKVFQVDSSKDITYLFRPDMIRLAHENNQALEFNEETGRGKRIEMSDLPK”, the “soluble fraction (log2)” value amounted to 0.0213.

Take “HMLLGPDALTNRELDVLALLERRLSNKEIGALLYISPRTVKRHTINIYQKLHVNNRRAAVAQAKALGLMPD”: the “soluble fraction (log2)” value was -1.79.

Take “HMNYHDTLSYLMDAFGGADNLQKLLGVGPSALSNYRRREHLPLNQARKLSNIAPEFGFNLDPYTLKISVID”: the “soluble fraction (log2)” value is -1.57.

For “HMNKEIEDYVATYSSMKAKEAAAIFDTMTSDLDLVAKILEAMSADDRAKILEQMNEENAARLTKMMD”, the “soluble fraction (log2)” value is 0.21.

As for “HMNVPYEMVTQNGEVFYKYKVQPGEGVFAVSRTFSVSVAEILRVNPEANKGLKNGQVLLIPVPKDMIA”, the “soluble fraction (log2)” value was 0.0163.

Take “HMAFKEQLKAARLAKGYTQEQLATAIGVAKSTFTGYEKGNSEPNMLTIKKLMEILEVDANYLWY”: the “soluble fraction (log2)” value was -2.49.

Regarding “HMSRRIEIELTSSRPDGSWTWRAAGAREPKGVLDGTLLSQGSKPGDVVKAEAEFDIDGITIVSITQ”, the “soluble fraction (log2)” value was -0.18.

As to “HMRAKPLILLDGREISAEELFSLDKNSIKSIEVLKDETALAQYGEKAKNGVVLVVTKSAAAS”, the “soluble fraction (log2)” value was found to be 0.246.

In the case of “HMIANDDEIRKVVLEVIEEQPKAVEDVKNGRDRILDFLVGQVMKKTRGKANPSLASNLMKEEIEK”, the “soluble fraction (log2)” value was 0.177.

As to “HMPNYVEMLRLHEAGFSLRQIAKLVSSGRNTVTRTVNIAQEKELSYEEIAQWSSEELENMFKPD”, the “soluble fraction (log2)” value is -1.68.

For the sequence “HMQMSDTGAIEAMVKEALDENPQAIEDFKNGKGKALGFLMGQVMKKSKGQANGGIVNKLIKEELQKRIG”, the “soluble fraction (log2)” value was determined as 0.181.

In the case of “HMSDPELAIPRVVGLSGNDAQAALVKAGFSAVTVVTVKNSEVTSEQVTHVVPAEGAKAKASTPVTVVVSSS”, the “soluble fraction (log2)” value was -0.0196.

Turning to “HMEARNDWAQQSRADAEFGGEKLDENLAVAKKAVEALASPELKTLLEQSGLGNHPEIIRLFYRAGRSLS”, the “soluble fraction (log2)” value came to 0.132.

In the case of “HMKHRFVVGEVLSIGKLQHEITLKTAQGERKFQLDKQDLPASIQDGAKVRAELNEAGRVIDVHPLK”, the “soluble fraction (log2)” value was found to be 0.355.
